Experimental data published in patent publication US12697371B2, “Method for preventing, treating or delaying myocardial damage using neuregulin and composition” (ZENSUN (SHANGHAI) SCIENCE & TECHNOLOGY, CO., LTD., priority 2019, dated 2026).
Where “and” joins values, the source holds several entries; their conditions need not be identical. Identical values can stand only once.

Experiments:
[1] = system: rats with acute myocardial infarction caused by left coronary artery ligation; experiment: Echocardiography, rat acute myocardial infarction, long-term subcutaneous NRG followed by withdrawal through frequency reduction (Example 3); type: in vivo, Wistar rats
Method: (§1) Established in the same way as the rat model of heart failure caused by coronary artery ligation in 5.1, Embodiment 1
The rats were randomly divided into groups and medicated upon coronary artery ligation. According to post-ligation survival, the rats were randomly divided into two groups, including the excipient group and the NRG30 μg/kg group. There were 19 rats in the excipient group and there were 18 rats in the NRG group. Continuous administration of medicine started on the day following the modeling, with subcutaneous administration for 3 times a day, at a dose of 10 μg/kg. Echocardiography was performed on day 14 after modeling. All the animals were medicated continuously until day 38, and the animals in the NRG group were examined by echocardiography. The animals in the NRG group were averagely divided into two subgroups, with the animals in one subgroup continuing to be medicated while the animals in the other subgroup stopped taking medicine at an early stage. The excipient group continued to be medicated. For the continuous NRG administration subgroup, a 3-week withdrawal plan was implemented on day 49: medicated every other day in the first week; medicated every three days in the second week; subcutaneously injected with NRG every four days in the third week. In terms of administration method, the rats were subcutaneously injected with NRG 3 times a day, exactly the same as above. For the NRG withdrawal subgroup, the clinical symptoms of the rats were observed. All the animals underwent echocardiography every week for monitoring of the changes in the cardiac function.
(§2) After being anesthetized with 4% isoflurane, the rats were fixed onto the operating board in the left lateral recumbent position. The head of the rats was fixed in the breathing mask of the gaseous anesthesia machine, with isoflurane used for maintenance of anesthesia. After chest hair removal, the skin was disinfected with 75% alcohol and coated with a coupling agent. An echocardiography probe was used to detect any echo signal from the left ventricle of the rats. The left ventricular end-diastolic diameter and left ventricular end-systolic diameter (D) were measured. The left ventricular end-diastolic volume (EDV) and end-systolic volume (ESV) were calculated. Also, the ejection fraction (EF) value was found, EF=(EDV−ESV)/EDV*100%.
(§3) All experimental data were expressed in ±SD. GraphPad Prism6 was used for one-way ANOVA analysis. P<0.05 indicates a significant inter-group difference; P<0.01 indicates an extremely significant inter-group difference.

[2] = system: rats with acute myocardial infarction caused by left coronary artery ligation; experiment: Echocardiography, rat acute myocardial infarction, long-term subcutaneous NRG followed by withdrawal through dose reduction (Example 4); type: in vivo, Wistar rats
Method: as §1
The rats were randomly divided into groups and medicated upon coronary artery ligation. According to post-ligation survival, the rats were randomly divided into 2 groups by body weight. Subcutaneous injection was given 3 times a day, and the animals were weighed once a day. The animals were medicated by weight. Echocardiography was performed on day 10 after modeling. All the animals underwent echocardiography every 10 days, underwent echocardiography every week after dose reduction, and underwent echocardiography every 2 weeks after complete withdrawal. All the animals were medicated continuously till day 60, and then a three-week dose-reduction withdrawal plan was implemented: The administered dose was reduced to 15 μg/kg, 7.5 μg/kg and 3.75 μg/kg in the first, second and third week, respectively. The drug was completely withdrawn after three-week dose reduction to observe the clinical symptoms.
as §2, with “The” for “Also, the”, “EP=(EDV−ESV)/EDV*100%.” for “EF=(EDV−ESV)/EDV*100%.”
as §3

[3] = DAY 14, 30 μg/kg sc (10 μg/kg 3 times a day), continuous
[4] = DAY 21, 30 μg/kg sc (10 μg/kg 3 times a day), continuous
[5] = DAY 28, 30 μg/kg sc (10 μg/kg 3 times a day), continuous
[6] = DAY 35, 30 μg/kg sc (10 μg/kg 3 times a day), continuous
[7] = DAY 38, Administration subgroup, 30 μg/kg sc continued
[8] = DAY 38, Withdrawal subgroup, 30 μg/kg sc until day 38, then stopped
[9] = DAY 42, Administration subgroup, 30 μg/kg sc continued
[10] = DAY 42, Withdrawal subgroup, 30 μg/kg sc until day 38, then stopped
[11] = DAY 49, Administration subgroup, 30 μg/kg sc continued
[12] = DAY 49, Withdrawal subgroup, 30 μg/kg sc until day 38, then stopped
[13] = DAY 56, Administration subgroup, 30 μg/kg sc, 3-week gradual withdrawal by frequency reduction from day 49
[14] = DAY 56, Withdrawal subgroup, 30 μg/kg sc until day 38, then stopped
[15] = DAY 63, Administration subgroup, 30 μg/kg sc, 3-week gradual withdrawal by frequency reduction from day 49
[16] = DAY 63, Withdrawal subgroup, 30 μg/kg sc until day 38, then stopped
[17] = DAY 68, Administration subgroup, 30 μg/kg sc, 3-week gradual withdrawal by frequency reduction from day 49
[18] = DAY 68, Withdrawal subgroup, 30 μg/kg sc until day 38, then stopped
[19] = DAY 74, Administration subgroup, 30 μg/kg sc, 3-week gradual withdrawal by frequency reduction from day 49
[20] = DAY 74, Withdrawal subgroup, 30 μg/kg sc until day 38, then stopped
[21] = DAY 10, 30 μg/kg/Day sc, 3 times a day, continuous
[22] = DAY 30, 30 μg/kg/Day sc, 3 times a day, continuous
[23] = DAY 50, 30 μg/kg/Day sc, 3 times a day, continuous
[24] = DAY 60, 30 μg/kg/Day sc, 3 times a day, continuous
[25] = DAY 81, 30 μg/kg/Day sc × 60 days, then three weeks of dose reduction (15, 7.5, 3.75 μg/kg)
[26] = DAY 88, after complete withdrawal on day 81 (30 μg/kg/Day sc × 60 days + 3-week dose reduction)
[27] = DAY 102, after complete withdrawal on day 81 (30 μg/kg/Day sc × 60 days + 3-week dose reduction)
[28] = DAY 116, after complete withdrawal on day 81 (30 μg/kg/Day sc × 60 days + 3-week dose reduction)
[29] = DAY 143 (ninth week after withdrawal), after complete withdrawal on day 81

B1: NRG: fragment of the NRG-1β2 isomer, 177-237 amino acid fragment containing an EGF-like domain (SEQ ID NO: 1); developed by Zensun (protein, listed as Homo sapiens)
chain: SHLVKCAEKEKTFCVNGGECFMVKDLSNPSRYLCKCPNEFTGDRCQNYVMASFYKAEELYQ
- LVEDd and LVEDs, cardiac systolic function, left ventricular remodeling ([1]; 30 μg/kg sc, after 35 consecutive days): significantly reduce the LVEDd and LVEDs and strengthen the cardiac systolic function, thereby reversing left ventricular remodeling
- EF [1, 3]: 44.5 ± 7.85 %
- LVEDd [1, 3]: 0.860 ± 0.04 cm
- LVEDs [1, 3]: 0.694 ± 0.06 cm
- EF [1, 4]: 45.5 ± 7.96 %
- LVEDd [1, 4]: 0.905 ± 0.04 cm
- LVEDs [1, 4]: 0.725 ± 0.06 cm
- EF [1, 5]: 44.3 ± 6.95 %
- LVEDd [1, 5]: 0.928 ± 0.05 cm
- LVEDs [1, 5]: 0.749 ± 0.06 cm
- EF [1, 6]: 44.9±6.09%
- LVEDd [1, 6]: 0.953±0.05 cm
- LVEDs [1, 6]: 0.767±0.06 cm
- EF [1, 7]: 44.9 ± 7.03%
- LVEDd [1, 7]: 0.953 ± 0.06 cm
- LVEDs [1, 7]: 0.764 ± 0.07 cm
- EF [1, 8]: 44.7 ± 6.26%
- LVEDd [1, 8]: 0.952 ± 0.05 cm
- LVEDs [1, 8]: 0.767 ± 0.07 cm
- EF [1, 9]: 46.5 ± 4.01 %
- LVEDd [1, 9]: 0.948 ± 0.04 cm
- LVEDs [1, 9]: 0.755 ± 0.04 cm
- EF [1, 10]: 39.1 ± 7.11 %
- LVEDd [1, 10]: 0.969 ± 0.04 cm
- LVEDs [1, 10]: 0.808 ± 0.05 cm
- EF [1, 11]: 45.0±5.51%
- LVEDd [1, 11]: 0.973±0.07 cm
- LVEDs [1, 11]: 0.783±0.08 cm
- EF [1, 12]: 42.2±5.48%
- LVEDd [1, 12]: 0.987±0.05 cm
- LVEDs [1, 12]: 0.807±0.06 cm
- EF [1, 13]: 38.8 ± 3.78 %
- LVEDd [1, 13]: 1.008 ± 0.06 cm
- LVEDs [1, 13]: 0.843 ± 0.06 cm
- EF [1, 14]: 39.0 ± 6.24 %
- LVEDd [1, 14]: 1.031 ± 0.05 cm
- LVEDs [1, 14]: 0.859 ± 0.07 cm
- EF [1, 15]: 41.3±4.92%
- LVEDd [1, 15]: 0.989±0.07 cm
- LVEDs [1, 15]: 0.814±0.08 cm
- EF [1, 16]: 35.4±6.78%
- LVEDd [1, 16]: 1.043±0.06 cm
- LVEDs [1, 16]: 0.887±0.06 cm
- EF [1, 17]: 40.8±4.67%
- LVEDd [1, 17]: 0.976±0.06 cm
- LVEDs [1, 17]: 0.805±0.07 cm
- EF [1, 18]: 38.9±5.04%
- LVEDd [1, 18]: 1.010±0.06 cm
- LVEDs [1, 18]: 0.842 ± 0.06 cm
- EF [1, 19]: 38.0 ± 3.81 %
- LVEDd [1, 19]: 1.004 ± 0.05 cm
- LVEDs [1, 19]: 0.842 ± 0.05 cm
- EF [1, 20]: 34.6 ± 7.55%
- LVEDd [1, 20]: 1.060 ± 0.05 cm
- LVEDs [1, 20]: 0.905 ± 0.05 cm
- Effect of sudden withdrawal on cardiac function ([1]; day 49, withdrawal subgroup stopped after day 38): exerted some effect on the cardiac function of the rats
- Cardiac function and cardiac remodeling, overall conclusion ([1]; long-term sc administration followed by withdrawal through frequency reduction): can improve the cardiac function of the rats with myocardial infarction and reduce cardiac remodeling
- LVEDd and LVEDs compared with the control group ([2]; 30 μg/kg/Day sc, 60 consecutive days): significantly reduced
- EF value compared with the control group ([2]; 30 μg/kg/Day sc, after 60 days of continuous administration): increased significantly
- EF [2, 21]: 50.5 ± 4.96 %
- LVEDd [2, 21]: 0.821 ± 0.05 cm
- LVEDs [2, 21]: 0.637 ± 0.06 cm
- EF [2, 22]: 46.8 ± 6.37 %
- LVEDd [2, 22]: 0.912 ± 0.06 cm
- LVEDs [2, 22]: 0.725 ± 0.07 cm
- EF [2, 23]: 44.4 ± 7.85 %
- LVEDd [2, 23]: 0.934 ± 0.07 cm
- LVEDs [2, 23]: 0.754 ± 0.09 cm
- EF [2, 24]: 43.8±8.0% and 43.8 ± 8.04 %
- LVEDd [2, 24]: 0.981±0.08 cm
- LVEDs [2, 24]: 0.794±0.08 cm
- EF [2, 25]: 42.3±11.2%
- LVEDd [2, 25]: 0.981±0.08 cm and 0.981 ± 0.07 cm
- LVEDs [2, 25]: 0.799±0.08 cm
- EF [2, 26]: 39.3±12.7% and 39.3 ± 12.71 %
- LVEDd [2, 26]: 0.994±0.08 cm
- LVEDs [2, 26]: 0.826±0.10 cm
- EF [2, 27]: 36.6 ± 7.69 %
- LVEDd [2, 27]: 1.031 ± 0.07 cm
- LVEDs [2, 27]: 0.872 ± 0.08 cm
- EF [2, 28]: 33.3 ± 5.12 %
- LVEDd [2, 28]: 1.054 ± 0.07 cm
- LVEDs [2, 28]: 0.908 ± 0.08 cm
- EF [2, 29]: 33.4±7.6%
- LVEDd [2, 29]: 1.104±0.08 cm
- LVEDs [2, 29]: 0.950±0.09 cm
- Cardiac function, overall conclusion ([2]; a long time after withdrawal): significant improving effect on the cardiac function
- EF value compared with the control group ([2]; nine weeks after withdrawal): still showed a rising trend
- LVEDd and LVEDs compared with the control group ([2]; nine weeks after withdrawal): there remained a significant difference
